Data set [1] concerns the target GST-BMAL1 (N-terminal GST fusion protein of human BMAL1; BMAL1b was used).
Data set [2] concerns the target GST-KIAA0596CT (N-terminal GST fusion protein of human KIAA0596CT, the C-terminal region, amino acids 639 to 1217, of KIAA0596) [GST: P08515].
Data set [3] has as its target T1, GST-KIAA1491 complete (N-terminal GST-fusion protein of KIAA1491 complete).
T1 chain: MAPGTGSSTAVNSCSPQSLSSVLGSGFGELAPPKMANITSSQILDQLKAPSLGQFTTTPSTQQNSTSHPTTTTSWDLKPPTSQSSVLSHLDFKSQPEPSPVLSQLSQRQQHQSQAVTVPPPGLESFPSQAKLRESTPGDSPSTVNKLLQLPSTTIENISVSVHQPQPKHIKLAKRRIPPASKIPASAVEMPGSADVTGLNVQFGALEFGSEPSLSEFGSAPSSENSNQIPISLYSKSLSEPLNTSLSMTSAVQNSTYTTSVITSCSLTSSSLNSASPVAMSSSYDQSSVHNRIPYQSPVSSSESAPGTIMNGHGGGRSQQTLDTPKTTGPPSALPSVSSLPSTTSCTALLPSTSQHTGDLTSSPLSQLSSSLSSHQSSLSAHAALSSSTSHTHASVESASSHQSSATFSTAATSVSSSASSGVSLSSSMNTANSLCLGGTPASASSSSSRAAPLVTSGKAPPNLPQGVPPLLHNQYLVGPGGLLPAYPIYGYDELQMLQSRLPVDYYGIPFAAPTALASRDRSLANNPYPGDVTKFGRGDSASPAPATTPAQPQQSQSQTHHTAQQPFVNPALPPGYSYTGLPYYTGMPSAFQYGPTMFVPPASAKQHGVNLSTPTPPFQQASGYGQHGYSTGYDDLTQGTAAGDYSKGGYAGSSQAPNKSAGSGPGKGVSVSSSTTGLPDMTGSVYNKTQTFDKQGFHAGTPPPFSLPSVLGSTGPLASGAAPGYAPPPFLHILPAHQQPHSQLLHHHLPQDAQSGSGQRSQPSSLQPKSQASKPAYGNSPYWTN

Data set [4] addresses GST (glutathione S-transferase) [GST: P08515].
Data set [5] addresses T2, GST-BPL1 (N-terminal GST fusion protein of human BPL1, holocarboxylase synthetase).
T2 chain: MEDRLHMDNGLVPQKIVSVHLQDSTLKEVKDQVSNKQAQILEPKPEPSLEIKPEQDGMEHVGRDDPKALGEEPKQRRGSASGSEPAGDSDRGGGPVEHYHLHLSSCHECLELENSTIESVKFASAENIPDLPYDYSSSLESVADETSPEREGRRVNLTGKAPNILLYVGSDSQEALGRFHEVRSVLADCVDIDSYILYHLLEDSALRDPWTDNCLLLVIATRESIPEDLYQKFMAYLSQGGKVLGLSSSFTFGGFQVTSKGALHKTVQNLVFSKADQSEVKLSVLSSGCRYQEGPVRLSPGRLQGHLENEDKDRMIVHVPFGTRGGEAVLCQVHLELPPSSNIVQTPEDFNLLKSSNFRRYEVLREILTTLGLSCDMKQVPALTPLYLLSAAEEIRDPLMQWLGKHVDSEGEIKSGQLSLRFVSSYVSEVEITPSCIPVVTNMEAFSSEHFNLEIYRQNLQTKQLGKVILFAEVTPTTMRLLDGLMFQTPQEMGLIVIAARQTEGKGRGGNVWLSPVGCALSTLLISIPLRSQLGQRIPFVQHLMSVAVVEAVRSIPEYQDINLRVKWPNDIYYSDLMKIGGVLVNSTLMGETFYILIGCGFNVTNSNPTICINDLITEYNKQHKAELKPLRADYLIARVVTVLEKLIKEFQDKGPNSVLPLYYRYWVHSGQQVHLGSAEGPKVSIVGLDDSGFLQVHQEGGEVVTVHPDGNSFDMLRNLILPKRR

Chain of GST-BMAL1 (N-terminal GST fusion protein of human BMAL1; BMAL1b was used) (chain, as listed by the source): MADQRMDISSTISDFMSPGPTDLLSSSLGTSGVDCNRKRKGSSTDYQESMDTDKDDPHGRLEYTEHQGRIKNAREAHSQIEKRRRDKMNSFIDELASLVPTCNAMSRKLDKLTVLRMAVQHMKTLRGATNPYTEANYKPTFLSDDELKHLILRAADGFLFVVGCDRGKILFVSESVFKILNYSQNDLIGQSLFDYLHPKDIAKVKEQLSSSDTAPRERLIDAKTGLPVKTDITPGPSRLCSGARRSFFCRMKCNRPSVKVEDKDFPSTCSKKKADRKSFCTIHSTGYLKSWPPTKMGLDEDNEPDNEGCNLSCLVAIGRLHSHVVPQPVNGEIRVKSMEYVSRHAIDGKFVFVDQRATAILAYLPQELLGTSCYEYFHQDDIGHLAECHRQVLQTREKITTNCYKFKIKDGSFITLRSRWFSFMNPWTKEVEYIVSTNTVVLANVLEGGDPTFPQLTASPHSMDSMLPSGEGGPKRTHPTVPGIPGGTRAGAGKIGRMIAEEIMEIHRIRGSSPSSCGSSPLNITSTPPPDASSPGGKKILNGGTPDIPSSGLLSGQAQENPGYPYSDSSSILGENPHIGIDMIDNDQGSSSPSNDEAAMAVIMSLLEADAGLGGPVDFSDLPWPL

B1: His-JNK3 (activated human JNK3 (JNK3α1) with an N-terminal histidine-tag) (protein)
chain: MSLHFLYYCSEPTLDVKIAFCQGFDKQVDVSYIAKHYNMSKSKVDNQFYSVEVGDSTFTVLKRYQNLKPIGSGAQGIVCAAYDAVLDRNVAIKKLSRPFQNQTHAKRAYRELVLMKCVNHKNIISLLNVFTPQKTLEEFQDVYLVMELMDANLCQVIQMELDHERMSYLLYQMLCGIKHLHSAGIIHRDLKPSNIVVKSDCTLKILDFGLARTAGTSFMMTPYVVTRYYRAPEVILGMGYKENVDIWSVGCIMGEMVRHKILFPGRDYIDQWNKVIEQLGTPCPEFMKKLQPTVRNYVENRPKYAGLTFPKLFPDSLFPADSEHNKLKASQARDLLSKMLVIDPAKRISVDDALQHPYINVWYDPAEVEAPPPQIYDKQLDEREHTIEEWKELIYKEVMNSEEKTKNGVVKGQPSPSAQVQQ
Consider B1, for which the Relative Strength (%) of the phosphorylated GST-c-Jun (1-79) band, 1.0 µg added protein (none added = 100) came out at 15.3% in data set [1]; 70.6% in data set [2]; 71.5% in data set [3]; 92.7% in data set [4]; 81.6% in data set [5]. Besides, the Relative Strength (%) of the phosphorylated GST-c-Jun (1-79) band, 2.0 µg added protein (none added = 100) turned out to be 4.7% in data set [1]; 33.5% in data set [2]; 67.1% in data set [3]; 93.6% in data set [4]; 59.7% in data set [5]. Moreover, in data set [1], the “phosphorylation of GST-BMAL1 by JNK3 (in vitro kinase assay, [γ-32P] ATP, autoradiography)” value was “the phosphorylation of GST-BMAL1 by JNK3 was observed ... the phosphorylation was dependent on the dose of JNK3”. Further, the “phosphorylation of GST-KIAA1491 complete by JNK3 (in vitro kinase assay, [γ-32P] ATP, autoradiography)” value in data set [3] is “GST-KIAA1491 complete were phosphorylated by JNK3 ... the phosphorylation was dependent on the dose of JNK3”. For the same protein, in data set [5], the “phosphorylation of GST-BPL1 by JNK3 (in vitro kinase assay, [γ-32P] ATP, autoradiography)” value was “The phosphorylation of GST-BPL1 by JNK3 was observed. Since the phosphorylation was dependent on the dose of JNK3”.

The values above are taken from patent publication US20050065082.
